Literature values in PMC4485553.

Biological target: human IgG1, wild type (UniProt P01857)
Assay: not stated in this review
Conditions: pH 6

FcRn (neonatal Fc receptor), mouse
KD: 32 nM
